These are literature values, as cited in article PMC9445421.

The target of series [1] is TrkB (Homo sapiens) (UniProt Q16620).
For series [2] the target is unchanged. The source holds these as a separate data set.

pKd: −log10 of the molar value. Like-named read-outs stand apart in the source and are kept apart here.

UniProt Q16620, sequence (Q16620 32-430): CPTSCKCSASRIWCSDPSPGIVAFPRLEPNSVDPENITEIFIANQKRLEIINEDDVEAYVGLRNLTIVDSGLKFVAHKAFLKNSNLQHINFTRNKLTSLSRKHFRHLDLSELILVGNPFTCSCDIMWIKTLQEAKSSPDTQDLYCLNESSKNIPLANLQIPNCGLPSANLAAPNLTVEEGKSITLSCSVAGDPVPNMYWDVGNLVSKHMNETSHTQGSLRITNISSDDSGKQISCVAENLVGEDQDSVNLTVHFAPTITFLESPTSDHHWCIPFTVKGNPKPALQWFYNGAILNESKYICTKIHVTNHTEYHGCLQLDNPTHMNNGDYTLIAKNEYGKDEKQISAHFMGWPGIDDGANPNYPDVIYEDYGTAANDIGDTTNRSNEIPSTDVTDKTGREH

For BDNF (from UniProt P23560), the negative-log Kd (pKd) (commonly the negative decadic logarithm of the Kd, by convention in mol/L) with TrkB (Homo sapiens) [1] is 9.10.

Turning to NT4 (from UniProt P34130), the pKd with TrkB (Homo sapiens) [2] is 9.59.
